# Experimental data from patent publication US20200199576.
# B1: wt E6AP (full-length) (protein)
# chain: MKRAAAKHLIERYYHQLTEGCGNEACTNEFCASCPTFLRMDNNAAAIKALELYKINAKLCDPHPSKKGASSAYLENSKGAPNNSCSEIKMNKKGARIDFKDVTYLTEEKVYEILELCREREDYSPLIRVIGRVFSSAEALVQSFRKVKQHTKEELKSLQAKDEDKDEDEKEKAACSAAAMEEDSEASSSRIGDSSQGDNNLQKLGPDDVSVDIDAIRRVYTRLLSNEKIETAFLNALVYLSPNVECDLTYHNVYSRDPNYLNLFIIVMENRNLHSPEYLEMALPLFCKAMSKLPLAAQGKLIRLWSKYNADQIRRMMETFQQLITYKVISNEFNSRNLVNDDDAIVAASKCLKMVYYANVVGGEVDTNHNEEDDEEPIPESSELTLQELLGEERRNKKGPRVDPLETELGVKTLDCRKPLIPFEEFINEPLNEVLEMDKDYTFFKVETENKFSFMTCPFILNAVTKNLGLYYDNRIRMYSERRITVLYSLVQGQQLNPYLRLKVRRDHIIDDALVRLEMIAMENPADLKKQLYVEFEGEQGVDEGGVSKEFFQLVVEEIFNPDIGMFTYDESTKLFWFNPSSFETEGQFTLIGIVLGLAIYNNCILDVHFPMVVYRKLMGKKGTFRDLGDSHPVLYQSLKDLLEYEGNVEDDMMITFQISQTDLFGNPMMYDLKENGDKIPITNENRKEFVNLYSDYILNKSVEKQFKAFRRGFHMVTNESPLKYLFRPEEIELLICGSRNLDFQALEETTEYDGGYTRDSVLIREFWEIVHSFTDEQKRLFLQFTTGTDRAPVGGLGKLKMIIAKNGPDTERLPTSHTCFNVLLLPEYSSKEKLKERLLKAITYAKGFGML
# Columns and labels:
# [1] = biological target: T1, FAS-associated factor UbxD8, Q96CS3
# T1 chain: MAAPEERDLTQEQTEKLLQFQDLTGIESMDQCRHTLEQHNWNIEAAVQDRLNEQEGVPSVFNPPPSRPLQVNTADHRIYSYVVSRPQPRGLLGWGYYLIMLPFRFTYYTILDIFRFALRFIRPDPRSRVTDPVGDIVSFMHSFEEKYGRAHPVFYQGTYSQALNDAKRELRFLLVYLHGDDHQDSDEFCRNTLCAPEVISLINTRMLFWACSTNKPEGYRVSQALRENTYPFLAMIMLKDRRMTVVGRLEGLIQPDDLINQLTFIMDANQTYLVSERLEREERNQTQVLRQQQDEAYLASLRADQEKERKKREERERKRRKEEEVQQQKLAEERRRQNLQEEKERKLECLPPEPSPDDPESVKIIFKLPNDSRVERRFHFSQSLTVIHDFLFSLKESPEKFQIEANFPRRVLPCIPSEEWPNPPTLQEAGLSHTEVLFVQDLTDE
# CDK4, P11802 = biological target: T2, CDK4, P11802
# T2 chain: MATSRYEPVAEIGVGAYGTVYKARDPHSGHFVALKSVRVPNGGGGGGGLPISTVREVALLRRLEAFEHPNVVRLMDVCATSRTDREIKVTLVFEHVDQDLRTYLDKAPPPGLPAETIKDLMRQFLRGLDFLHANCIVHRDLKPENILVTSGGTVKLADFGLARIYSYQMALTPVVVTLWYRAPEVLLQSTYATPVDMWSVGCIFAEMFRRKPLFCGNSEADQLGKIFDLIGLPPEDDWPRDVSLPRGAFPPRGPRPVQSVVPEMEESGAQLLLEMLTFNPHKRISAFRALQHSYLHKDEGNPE
# [2] = biological target: protein Arg methyltransferase 5 (PRMT5), O14744
# [3] = biological target: T3, UV excision repair protein HHR23A (RAD23A), P54725
# T3 chain: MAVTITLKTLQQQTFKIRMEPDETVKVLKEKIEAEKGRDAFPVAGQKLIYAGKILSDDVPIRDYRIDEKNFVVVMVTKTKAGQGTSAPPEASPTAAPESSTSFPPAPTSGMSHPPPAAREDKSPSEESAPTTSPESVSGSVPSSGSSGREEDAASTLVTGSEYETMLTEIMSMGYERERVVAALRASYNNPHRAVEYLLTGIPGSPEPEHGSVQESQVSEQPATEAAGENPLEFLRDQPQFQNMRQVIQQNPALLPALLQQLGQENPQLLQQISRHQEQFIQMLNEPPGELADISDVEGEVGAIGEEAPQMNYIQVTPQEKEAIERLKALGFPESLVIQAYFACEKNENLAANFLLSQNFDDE
# β-catenin, P35222 = biological target: T4, β-catenin, P35222
# T4 chain: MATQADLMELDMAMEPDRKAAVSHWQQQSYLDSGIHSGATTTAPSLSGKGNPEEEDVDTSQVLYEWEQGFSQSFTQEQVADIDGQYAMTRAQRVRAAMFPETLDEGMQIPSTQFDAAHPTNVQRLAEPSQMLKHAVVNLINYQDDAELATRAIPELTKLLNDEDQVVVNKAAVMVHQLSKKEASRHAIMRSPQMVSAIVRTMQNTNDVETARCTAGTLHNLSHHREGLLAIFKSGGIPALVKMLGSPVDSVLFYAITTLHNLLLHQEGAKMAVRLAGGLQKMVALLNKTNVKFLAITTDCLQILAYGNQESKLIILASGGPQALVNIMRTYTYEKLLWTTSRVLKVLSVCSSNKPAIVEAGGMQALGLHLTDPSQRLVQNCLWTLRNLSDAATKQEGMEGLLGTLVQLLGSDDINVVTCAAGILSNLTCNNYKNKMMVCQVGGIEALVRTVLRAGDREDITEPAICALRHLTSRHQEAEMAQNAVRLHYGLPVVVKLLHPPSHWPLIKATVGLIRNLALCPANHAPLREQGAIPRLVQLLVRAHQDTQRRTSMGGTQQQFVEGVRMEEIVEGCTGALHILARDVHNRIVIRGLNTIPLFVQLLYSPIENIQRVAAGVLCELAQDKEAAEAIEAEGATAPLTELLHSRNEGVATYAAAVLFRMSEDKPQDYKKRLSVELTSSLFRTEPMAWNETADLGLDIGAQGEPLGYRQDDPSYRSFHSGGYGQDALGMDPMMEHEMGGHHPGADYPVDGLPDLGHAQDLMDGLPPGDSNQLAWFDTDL
# p53, P04637, sequence (P04637 whole entry, looked up): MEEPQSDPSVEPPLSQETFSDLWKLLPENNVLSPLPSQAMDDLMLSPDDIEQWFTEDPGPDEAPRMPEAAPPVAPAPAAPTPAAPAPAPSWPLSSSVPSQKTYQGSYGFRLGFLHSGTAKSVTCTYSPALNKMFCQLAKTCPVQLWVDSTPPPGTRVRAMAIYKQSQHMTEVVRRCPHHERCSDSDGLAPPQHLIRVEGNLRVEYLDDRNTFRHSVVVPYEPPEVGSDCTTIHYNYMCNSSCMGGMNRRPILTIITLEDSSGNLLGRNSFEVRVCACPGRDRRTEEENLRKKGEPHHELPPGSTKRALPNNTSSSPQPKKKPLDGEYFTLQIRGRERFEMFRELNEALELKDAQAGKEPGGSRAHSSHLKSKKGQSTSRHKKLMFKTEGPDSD
# MAPK1, P28482, sequence (P28482 whole entry): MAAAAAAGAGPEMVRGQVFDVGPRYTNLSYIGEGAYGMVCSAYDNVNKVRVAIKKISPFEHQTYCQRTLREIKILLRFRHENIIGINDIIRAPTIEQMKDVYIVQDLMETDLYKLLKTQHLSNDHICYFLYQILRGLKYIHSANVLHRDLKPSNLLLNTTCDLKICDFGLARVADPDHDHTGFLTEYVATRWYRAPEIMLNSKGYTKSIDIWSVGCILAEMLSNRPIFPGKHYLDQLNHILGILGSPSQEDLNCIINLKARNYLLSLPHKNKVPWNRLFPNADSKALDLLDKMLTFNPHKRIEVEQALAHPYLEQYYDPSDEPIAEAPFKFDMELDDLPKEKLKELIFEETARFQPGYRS
# protein Arg methyltransferase 5 (PRMT5), O14744, sequence (O14744 whole entry): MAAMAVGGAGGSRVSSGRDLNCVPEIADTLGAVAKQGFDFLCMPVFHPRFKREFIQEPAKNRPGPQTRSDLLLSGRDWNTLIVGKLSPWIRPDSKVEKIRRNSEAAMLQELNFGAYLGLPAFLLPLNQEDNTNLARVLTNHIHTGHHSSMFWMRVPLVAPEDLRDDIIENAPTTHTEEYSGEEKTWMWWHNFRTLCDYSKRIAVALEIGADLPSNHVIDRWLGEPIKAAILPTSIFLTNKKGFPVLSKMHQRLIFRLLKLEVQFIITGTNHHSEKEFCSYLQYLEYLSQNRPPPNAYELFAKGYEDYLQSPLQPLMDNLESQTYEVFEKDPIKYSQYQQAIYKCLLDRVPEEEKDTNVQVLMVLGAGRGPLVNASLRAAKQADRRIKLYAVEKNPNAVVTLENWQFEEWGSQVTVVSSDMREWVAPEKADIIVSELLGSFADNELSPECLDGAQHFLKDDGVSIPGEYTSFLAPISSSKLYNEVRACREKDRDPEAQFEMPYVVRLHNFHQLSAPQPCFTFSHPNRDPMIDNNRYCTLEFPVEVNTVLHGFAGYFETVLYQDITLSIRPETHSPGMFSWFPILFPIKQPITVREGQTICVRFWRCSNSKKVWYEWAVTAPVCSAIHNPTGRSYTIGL
# CDK1, P06493, sequence (P06493 whole entry, looked up): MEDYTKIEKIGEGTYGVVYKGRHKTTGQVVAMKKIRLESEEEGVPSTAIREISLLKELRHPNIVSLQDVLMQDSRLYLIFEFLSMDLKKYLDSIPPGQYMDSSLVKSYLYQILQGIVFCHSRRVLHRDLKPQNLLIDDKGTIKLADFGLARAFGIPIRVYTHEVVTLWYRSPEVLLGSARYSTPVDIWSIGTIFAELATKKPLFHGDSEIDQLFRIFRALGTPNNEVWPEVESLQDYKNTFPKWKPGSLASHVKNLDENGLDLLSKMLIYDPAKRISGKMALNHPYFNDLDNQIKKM
protein,measurement,setting,value
B1,"in vitro substrate ubiquitination with wt UB through Uba1-UbcH7-E6AP, Western blot","CDK1, P06493","CDK1, CDK4 and β-catenin were strongly ubiquitinated by E6AP with the formation of high molecular weight bands"
same,"p53 ubiquitination in the presence of E6, Western blot","p53, P04637",p53 can be efficiently ubiquitinated by wt UB through the wt Uba1-UbcH7-E6AP cascade in the presence of E6
same,"in vitro substrate ubiquitination with wt UB through Uba1-UbcH7-E6AP, Western blot","MAPK1, P28482","MAPK1, PRMTS, and UbxD8 mainly generated species with one or two conjugated UBs"
same,"in vitro substrate ubiquitination with wt UB through Uba1-UbcH7-E6AP, Western blot",[1],"MAPK1, PRMTS, and UbxD8 mainly generated species with one or two conjugated UBs"
same,"in vitro substrate ubiquitination with wt UB through Uba1-UbcH7-E6AP, Western blot","CDK4, P11802","CDK1, CDK4 and β-catenin were strongly ubiquitinated by E6AP with the formation of high molecular weight bands"
same,"in vitro substrate ubiquitination with wt UB through Uba1-UbcH7-E6AP, Western blot",[2],"MAPK1, PRMTS, and UbxD8 mainly generated species with one or two conjugated UBs"
same,"full-length E6AP auto-ubiquitination with wt UB, Western blot",wt UbcH7 (human E2),wt E6AP can be auto-ubiquitinated by the wt Uba1-UbcH7 pair
same,"in vitro substrate ubiquitination with wt UB through Uba1-UbcH7-E6AP, Western blot",[3],"E6AP-catalyzed ubiquitination of HHR23A, a previously identified E6AP substrate, was confirmed"
same,"in vitro substrate ubiquitination with wt UB through Uba1-UbcH7-E6AP, Western blot","β-catenin, P35222","CDK1, CDK4 and β-catenin were strongly ubiquitinated by E6AP with the formation of high molecular weight bands"
